Patent US20260232831A1 (FRONTAIM BIOMEDICINES, published 2026)

T1: human Trop2 on the cell surface (A-431, ME-180, MDA-MB-468 cells) (human, UniProt P09758 27-323)
T1 sequence (looked up): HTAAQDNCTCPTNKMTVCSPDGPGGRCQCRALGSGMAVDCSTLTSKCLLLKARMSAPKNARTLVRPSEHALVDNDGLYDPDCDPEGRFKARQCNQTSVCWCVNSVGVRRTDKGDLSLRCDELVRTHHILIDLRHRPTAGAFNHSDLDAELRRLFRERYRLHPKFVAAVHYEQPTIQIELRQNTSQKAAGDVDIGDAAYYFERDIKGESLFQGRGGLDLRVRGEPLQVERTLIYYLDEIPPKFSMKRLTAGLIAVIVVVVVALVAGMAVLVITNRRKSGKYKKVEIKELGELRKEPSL


What was measured:
[1] = target: T1, human Trop2 on the cell surface (A-431, …); assay: cell-based or functional assay
[2] = target: T1, human Trop2 on the cell surface (A-431, …); assay: flow cytometry on ME-180 cells, AF488 goat anti-human IgG Fc detection
Protocol: For CD3 binding, Jurkat cells were dispensed into a 96-well plate at 2×10⁵/well, and incubated with indicated agents at 4° C. for 45 min. After wash with PBS, cells were incubated with AF488 labeled goat anti-human IgG Fe. For Trop2 binding, ME-180 cells were dissociated from culture, dispensed into a 96-well plate at 2×10⁵/well, and incubated with indicated agents at 4° C. for 45 min. After wash with PBS, cells were incubated with AF488 labeled goat anti-human IgG Fc. Binding was analyzed by low cytometry using Attune N×T Flow Cytometer.
After wash with PBS, cells were incubated with a AF488 labeled goat anti-human IgG Fc secondary antibody at 4° C. for another 45 min. After two wash steps, binding was analyzed by flow cytometry using Attune N×T Flow Cytometer.

[3] = target: T2, human CD3 on Jurkat cell surface (human, UniProt P07766 23-207); assay: flow cytometry on Jurkat cells, AF488 goat anti-human IgG Fc detection
T2 construct: whole, on cells; also called cell surface CD3 of Jurkat
Protocol: For CD3 binding, Jurkat cells were dispensed into a 96-well plate at 2×10⁵/well, and incubated with indicated agents at 4° C. for 45 min. After wash with PBS, cells were incubated with AF488 labeled goat anti-human IgG Fc. […] After wash with PBS, cells were incubated with AF488 labeled goat anti-human IgG Fe.
After wash with PBS, cells were incubated with a AF488 labeled goat anti-human IgG Fc secondary antibody at 4° C. for another 45 min.

[4] = target: T1, human Trop2 on the cell surface (A-431, …); assay: flow cytometry on A-431 cells, AF488 goat anti-human IgG Fc detection
Protocol: All incubations were 45 min at 4° C. plus washes with 1% BSA in PBS between incubations. Binding signal was measured by Attune™ N×T Acoustic Focusing Cytometer (ThermoFisher Scientific).

T2 sequence (P07766 23-207): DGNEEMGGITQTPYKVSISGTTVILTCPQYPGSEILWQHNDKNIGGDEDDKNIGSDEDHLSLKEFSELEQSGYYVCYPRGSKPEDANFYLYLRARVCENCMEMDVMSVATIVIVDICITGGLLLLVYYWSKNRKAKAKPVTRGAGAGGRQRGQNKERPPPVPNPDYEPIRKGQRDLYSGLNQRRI

EC50 (read off the curve) [2] | binding result [3] | EC50 (read off the curve) [4] | Binder | IC50, 60-hour MTS viability assay, BT-474 cells with human PBMCs (10:1) [1] | IC50, 60-hour MTS viability assay, HCT116 cells with human PBMCs (10:1) [1] | IC50, 60-hour MTS viability assay, MDA-MB-231 cells with human PBMCs (10:1) [1] | IC50, 60-hour MTS viability assay, MDA-MB-468 cells with human PBMCs (10:1) [1]
~10 nM | – | – | bispecific antibody 3scFv×hL0125C (bispecific antibody, The AD2 of the scFv is docked on the DDD2 dimer and locked by disulfide bonds; the complex holds 2 heavy chains, 2 light chains and 1 scFv., hL0125 IgG with DDD2 inserted in the hinge of each heavy chain; The DDD2 dimer docks the AD2 of one anti-CD3 scFv (3scFv), giving a 2+1 format assembled intracellularly; also called Construct C; Format C) heavy: not shown light: DIQLTQSPAIMSASPGERVTMTCRASSSVSSSYLHWYQQRSGQSPKLLIYSTSNLASGVPARFSGSGSGTDYSLTISSLEAEDAATYYCQQYSGSPLTFGSGTKLEIKRTVAAPSVFIFPPSDEQLKSGTASVVCLLNNFYPREAKVQWKVDNALQSGNSQESVTEQDSKDSTYSLSSTLTLSKADYEKHKVYACEVTHQGLSSPVTKSFNRGEC scFv: not shown | ~0.02 nM | ~0.018 nM | ~0.013 nM | ~6 pM
~6 nM | no binding (tested: 20.0 nM) | ~10 nM | humanized anti-Trop2 antibody hL0125 (antibody, V domains shown, Variable regions were cloned into human IgG expression vectors to give a full-size humanized IgG; also called modular antibody hL0125) VL: DIQLTQSPAIMSASPGERVTMTCRASSSVSSSYLHWYQQRSGQSPKLLIYSTSNLASGVPARFSGSGSGTDYSLTISSLEAEDAATYYCQQYSGSPLTFGSGTKLEIKR VH: QVQLQESGGGLVKPGGSLKLSCAASGFTFSSYAMSWVRQTPDKRLEWVAEISSDGFYTYYPDTVTGRFTISRDNAKNTLYLQMSSLRSEDTAMYYCARDGNYVDYAMDYWGQGTSVTVSS | – | – | – | –
– | – | ~10 nM | chimeric anti-Trop2 antibody cL0125 (antibody, V domains shown, Chimeric antibody made from the murine L0125 VL and VH) VH: VKLQESGGGLVKPGGSLKLSCAASGFTFSSYAMSWVRQSPEKRLEWVAEISSDGFYTYYPDTVTGRFTISRDNAKNTLYLEMSSLRSEDTAMYYCARDGNYVDYAMDYWGQGTSVTVSS VL: DIQLTQSPAIMSASPGEKVTMTCRASSSVSSSYLHWYQQRSGASPKLWIYSTSNLASGVPARFSGSGSGTSYSLTISSVEAEDAATYYCQQYSGSPLTFGSGTKLEIKR | – | – | – | –
